Assay results: PMC9482650, “Quantitative fragmentomics allow affinity mapping of interactomes” (Nature Communications, 2022)

T1: DVL3, Q92997
T1 sequence (Q92997 244-331, limits assumed, looked up): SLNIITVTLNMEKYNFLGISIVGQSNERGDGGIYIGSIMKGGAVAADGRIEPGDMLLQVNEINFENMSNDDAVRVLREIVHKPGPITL

T2: ARHGEF11, O15085
T2 sequence (O15085 42-136, limits assumed, looked up): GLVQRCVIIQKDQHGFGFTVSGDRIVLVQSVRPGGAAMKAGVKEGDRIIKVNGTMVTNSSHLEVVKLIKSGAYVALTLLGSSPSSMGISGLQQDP

T3: RAPGEF6, Q8TEU7
T3 sequence (Q8TEU7 525-625, limits assumed, looked up): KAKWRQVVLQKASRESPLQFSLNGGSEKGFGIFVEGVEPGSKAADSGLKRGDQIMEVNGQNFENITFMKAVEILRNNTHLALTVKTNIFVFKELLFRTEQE

T4: APBA3_1, O96018
T4 sequence (O96018 389-490, limits assumed, looked up): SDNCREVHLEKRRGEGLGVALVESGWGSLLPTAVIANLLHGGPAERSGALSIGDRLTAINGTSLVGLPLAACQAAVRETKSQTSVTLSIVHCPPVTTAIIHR

T5: APBA2_1, Q99767
T5 sequence (Q99767 563-664, limits assumed, looked up): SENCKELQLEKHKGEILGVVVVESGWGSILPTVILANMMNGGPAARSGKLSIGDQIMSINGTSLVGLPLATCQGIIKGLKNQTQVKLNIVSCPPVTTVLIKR

T6: MPP6, Q9NZW5
T6 sequence (Q9NZW5 125-219, limits assumed, looked up): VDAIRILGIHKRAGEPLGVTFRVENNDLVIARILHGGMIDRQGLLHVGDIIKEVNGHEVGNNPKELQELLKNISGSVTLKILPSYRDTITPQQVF

T7: SNTA1, Q13424
T7 sequence (Q13424 82-180, limits assumed, looked up): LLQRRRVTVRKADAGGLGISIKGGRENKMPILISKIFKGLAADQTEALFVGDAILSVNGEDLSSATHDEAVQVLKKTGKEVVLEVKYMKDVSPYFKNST

T8: PTPN13_1, Q12923
T8 sequence (Q12923 1088-1188, limits assumed, looked up): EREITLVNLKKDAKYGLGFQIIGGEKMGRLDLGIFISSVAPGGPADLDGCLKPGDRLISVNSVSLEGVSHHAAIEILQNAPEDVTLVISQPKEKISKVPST

T9: LRRC7, Q96NW7
T9 sequence (Q96NW7 1440-1537, limits assumed, looked up): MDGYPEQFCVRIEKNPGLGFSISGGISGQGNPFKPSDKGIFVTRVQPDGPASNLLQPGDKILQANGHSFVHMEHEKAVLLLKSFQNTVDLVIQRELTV

T10: DLG3_1, Q92796
T10 sequence (Q92796 125-227, limits assumed, looked up): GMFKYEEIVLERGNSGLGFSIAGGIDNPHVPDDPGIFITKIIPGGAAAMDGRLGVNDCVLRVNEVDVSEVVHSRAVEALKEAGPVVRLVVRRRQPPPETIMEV

T11: PDZD2_2, O15018
T11 sequence (O15018 329-429, limits assumed, looked up): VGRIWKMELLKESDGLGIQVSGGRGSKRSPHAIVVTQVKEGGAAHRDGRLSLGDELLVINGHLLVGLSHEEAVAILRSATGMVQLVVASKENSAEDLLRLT

T12: SNTB1, Q13884
T12 sequence (Q13884 107-205, limits assumed, looked up): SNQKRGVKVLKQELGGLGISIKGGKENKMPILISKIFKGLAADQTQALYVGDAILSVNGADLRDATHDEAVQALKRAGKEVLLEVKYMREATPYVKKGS

T13: MPP7, Q5T2T1
T13 sequence (Q5T2T1 134-230, limits assumed, looked up): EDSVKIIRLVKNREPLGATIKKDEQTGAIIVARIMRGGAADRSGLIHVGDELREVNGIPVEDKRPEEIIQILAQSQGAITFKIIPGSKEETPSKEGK


Biological target: T1, DVL3, Q92997
Assay: holdup assay
Design: key: below the threshold = too weak to quantify, mostly under pKd 3.1 to 4
Conditions: plain residues with an end cap or a label only (N-terminal biotin on a linker: ttds)

pKd | Binder
below the threshold | NYWPGKETQL [SLCO1C1, Q9NYB5]
below the threshold | CNTVTVETVV [MAS1, P04201]

Biological target: HTRA2, O43464
Sequence (O43464 355-458): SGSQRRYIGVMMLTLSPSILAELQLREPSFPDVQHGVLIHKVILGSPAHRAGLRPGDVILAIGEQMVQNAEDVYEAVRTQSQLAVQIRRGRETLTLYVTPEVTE
Assay: holdup assay
Design: key: below the threshold = too weak to quantify, mostly under pKd 3.1 to 4
Conditions: plain residues with an end cap or a label only (N-terminal biotin on a linker: ttds)

pKd | Binder
below the threshold | NYWPGKETQL [SLCO1C1, Q9NYB5]
below the threshold | CNTVTVETVV [MAS1, P04201]

Biological target: AHNAK1, Q09666
Sequence (Q09666 4-100): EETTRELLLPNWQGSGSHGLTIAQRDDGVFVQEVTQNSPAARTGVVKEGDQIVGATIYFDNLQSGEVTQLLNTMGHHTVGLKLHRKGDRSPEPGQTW
Assay: holdup assay
Design: key: below the threshold = too weak to quantify, mostly under pKd 3.1 to 4
Conditions: plain residues with an end cap or a label only (N-terminal biotin on a linker: ttds)

pKd | Binder
below the threshold | NYWPGKETQL [SLCO1C1, Q9NYB5]
below the threshold | CNTVTVETVV [MAS1, P04201]

Biological target: DLG5_1, Q8TDM6
Sequence (Q8TDM6 617-713): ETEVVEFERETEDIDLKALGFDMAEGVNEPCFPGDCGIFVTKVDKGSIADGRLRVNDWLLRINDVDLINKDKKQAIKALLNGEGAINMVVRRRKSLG
Assay: holdup assay
Design: key: below the threshold = too weak to quantify, mostly under pKd 3.1 to 4
Conditions: plain residues with an end cap or a label only (N-terminal biotin on a linker: ttds)

pKd | Binder
below the threshold | NYWPGKETQL [SLCO1C1, Q9NYB5]
below the threshold | CNTVTVETVV [MAS1, P04201]

Biological target: T2, ARHGEF11, O15085
Assay: holdup assay
Design: key: below the threshold = too weak to quantify, mostly under pKd 3.1 to 4
Conditions: plain residues with an end cap or a label only (N-terminal biotin on a linker: ttds)

pKd | Binder
4.53 | NYWPGKETQL [SLCO1C1, Q9NYB5]
below the threshold | CNTVTVETVV [MAS1, P04201]

Biological target: MAGI2_6, Q86UL8
Sequence (Q86UL8 1141-1229): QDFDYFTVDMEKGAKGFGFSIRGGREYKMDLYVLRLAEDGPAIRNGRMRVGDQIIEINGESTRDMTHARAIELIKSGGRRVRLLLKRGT
Assay: holdup assay
Design: key: below the threshold = too weak to quantify, mostly under pKd 3.1 to 4
Conditions: plain residues with an end cap or a label only (N-terminal biotin on a linker: ttds)

pKd | Binder
4.42 | NYWPGKETQL [SLCO1C1, Q9NYB5]
below the threshold | CNTVTVETVV [MAS1, P04201]

Biological target: T3, RAPGEF6, Q8TEU7
Assay: holdup assay
Design: key: below the threshold = too weak to quantify, mostly under pKd 3.1 to 4
Conditions: plain residues with an end cap or a label only (N-terminal biotin on a linker: ttds)

pKd | Binder
below the threshold | NYWPGKETQL [SLCO1C1, Q9NYB5]
below the threshold | CNTVTVETVV [MAS1, P04201]

Biological target: T4, APBA3_1, O96018
Assay: holdup assay
Design: key: below the threshold = too weak to quantify, mostly under pKd 3.1 to 4
Conditions: plain residues with an end cap or a label only (N-terminal biotin on a linker: ttds)

pKd | Binder
below the threshold | NYWPGKETQL [SLCO1C1, Q9NYB5]
below the threshold | CNTVTVETVV [MAS1, P04201]

Biological target: SNX27, Q96L92
Assay: holdup assay
Design: key: below the threshold = too weak to quantify, mostly under pKd 3.1 to 4
Conditions: plain residues with an end cap or a label only (N-terminal biotin on a linker: ttds)

pKd | Binder
5.24 | NYWPGKETQL [SLCO1C1, Q9NYB5]
4.57 | CNTVTVETVV [MAS1, P04201]

Biological target: T5, APBA2_1, Q99767
Assay: holdup assay
Design: key: below the threshold = too weak to quantify, mostly under pKd 3.1 to 4
Conditions: plain residues with an end cap or a label only (N-terminal biotin on a linker: ttds)

pKd | Binder
below the threshold | NYWPGKETQL [SLCO1C1, Q9NYB5]
below the threshold | CNTVTVETVV [MAS1, P04201]

Biological target: PARD3_3, Q8TEW0
Sequence (Q8TEW0 582-685): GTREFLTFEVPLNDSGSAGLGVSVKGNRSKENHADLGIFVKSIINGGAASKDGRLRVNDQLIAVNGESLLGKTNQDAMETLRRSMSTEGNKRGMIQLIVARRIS
Assay: holdup assay
Design: key: below the threshold = too weak to quantify, mostly under pKd 3.1 to 4
Conditions: plain residues with an end cap or a label only (N-terminal biotin on a linker: ttds)

pKd | Binder
below the threshold | NYWPGKETQL [SLCO1C1, Q9NYB5]
below the threshold | CNTVTVETVV [MAS1, P04201]

Biological target: T6, MPP6, Q9NZW5
Assay: holdup assay
Design: key: below the threshold = too weak to quantify, mostly under pKd 3.1 to 4
Conditions: plain residues with an end cap or a label only (N-terminal biotin on a linker: ttds)

pKd | Binder
3.74 | NYWPGKETQL [SLCO1C1, Q9NYB5]
3.54 | CNTVTVETVV [MAS1, P04201]

Biological target: DLG2_3, Q15700
Assay: holdup assay
Design: key: below the threshold = too weak to quantify, mostly under pKd 3.1 to 4
Conditions: plain residues with an end cap or a label only (N-terminal biotin on a linker: ttds)

pKd | Binder
4.69 | NYWPGKETQL [SLCO1C1, Q9NYB5]
below the threshold | CNTVTVETVV [MAS1, P04201]

Biological target: IL16_4, Q14005
Sequence (Q14005 1229-1329): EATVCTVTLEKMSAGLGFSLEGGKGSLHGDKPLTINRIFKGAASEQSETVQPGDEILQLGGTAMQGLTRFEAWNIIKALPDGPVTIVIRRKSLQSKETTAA
Assay: holdup assay
Design: key: below the threshold = too weak to quantify, mostly under pKd 3.1 to 4
Conditions: plain residues with an end cap or a label only (N-terminal biotin on a linker: ttds)

pKd | Binder
below the threshold | NYWPGKETQL [SLCO1C1, Q9NYB5]
3.6 | CNTVTVETVV [MAS1, P04201]

Biological target: T7, SNTA1, Q13424
Assay: holdup assay
Design: key: below the threshold = too weak to quantify, mostly under pKd 3.1 to 4
Conditions: plain residues with an end cap or a label only (N-terminal biotin on a linker: ttds)

pKd | Binder
5.51 | NYWPGKETQL [SLCO1C1, Q9NYB5]
4.34 | CNTVTVETVV [MAS1, P04201]

Biological target: LAP2, Q96RT1
Sequence (Q96RT1 other isoform, or with tags, fused parts or gaps): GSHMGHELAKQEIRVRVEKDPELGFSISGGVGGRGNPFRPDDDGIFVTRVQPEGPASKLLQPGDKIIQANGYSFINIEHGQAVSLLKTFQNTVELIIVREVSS
Assay: holdup assay
Design: key: below the threshold = too weak to quantify, mostly under pKd 3.1 to 4
Conditions: plain residues with an end cap or a label only (N-terminal biotin on a linker: ttds)

pKd | Binder
3.92 | NYWPGKETQL [SLCO1C1, Q9NYB5]
3.48 | CNTVTVETVV [MAS1, P04201]

Biological target: GRIP2_6, Q9C0E4
Sequence (Q9C0E4 648-740): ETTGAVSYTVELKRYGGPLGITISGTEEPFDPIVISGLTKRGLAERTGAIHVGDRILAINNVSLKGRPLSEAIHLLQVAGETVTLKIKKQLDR
Assay: holdup assay
Design: key: below the threshold = too weak to quantify, mostly under pKd 3.1 to 4
Conditions: plain residues with an end cap or a label only (N-terminal biotin on a linker: ttds)

pKd | Binder
below the threshold | NYWPGKETQL [SLCO1C1, Q9NYB5]
below the threshold | CNTVTVETVV [MAS1, P04201]

Biological target: T8, PTPN13_1, Q12923
Assay: holdup assay
Design: key: below the threshold = too weak to quantify, mostly under pKd 3.1 to 4
Conditions: plain residues with an end cap or a label only (N-terminal biotin on a linker: ttds)

pKd | Binder
below the threshold | NYWPGKETQL [SLCO1C1, Q9NYB5]
3.57 | CNTVTVETVV [MAS1, P04201]

Biological target: T9, LRRC7, Q96NW7
Assay: holdup assay
Design: key: below the threshold = too weak to quantify, mostly under pKd 3.1 to 4
Conditions: plain residues with an end cap or a label only (N-terminal biotin on a linker: ttds)

pKd | Binder
4.31 | NYWPGKETQL [SLCO1C1, Q9NYB5]
below the threshold | CNTVTVETVV [MAS1, P04201]

Biological target: FRMPD2_1, Q68DX3
Sequence (Q68DX3 770-861): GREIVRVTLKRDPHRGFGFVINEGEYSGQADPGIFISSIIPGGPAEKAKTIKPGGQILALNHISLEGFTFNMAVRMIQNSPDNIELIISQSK
Assay: holdup assay
Design: key: below the threshold = too weak to quantify, mostly under pKd 3.1 to 4
Conditions: plain residues with an end cap or a label only (N-terminal biotin on a linker: ttds)

pKd | Binder
4.05 | NYWPGKETQL [SLCO1C1, Q9NYB5]
below the threshold | CNTVTVETVV [MAS1, P04201]

Biological target: T10, DLG3_1, Q92796
Assay: holdup assay
Design: key: below the threshold = too weak to quantify, mostly under pKd 3.1 to 4
Conditions: plain residues with an end cap or a label only (N-terminal biotin on a linker: ttds)

pKd | Binder
3.9 | NYWPGKETQL [SLCO1C1, Q9NYB5]
3.51 | CNTVTVETVV [MAS1, P04201]

Biological target: T11, PDZD2_2, O15018
Assay: holdup assay
Design: key: below the threshold = too weak to quantify, mostly under pKd 3.1 to 4
Conditions: plain residues with an end cap or a label only (N-terminal biotin on a linker: ttds)

pKd | Binder
below the threshold | NYWPGKETQL [SLCO1C1, Q9NYB5]
3.59 | CNTVTVETVV [MAS1, P04201]

Biological target: T12, SNTB1, Q13884
Assay: holdup assay
Design: key: below the threshold = too weak to quantify, mostly under pKd 3.1 to 4
Conditions: plain residues with an end cap or a label only (N-terminal biotin on a linker: ttds)

pKd | Binder
5.42 | NYWPGKETQL [SLCO1C1, Q9NYB5]
4.29 | CNTVTVETVV [MAS1, P04201]

Biological target: FRMPD2_3, Q68DX3
Sequence (Q68DX3 1073-1166): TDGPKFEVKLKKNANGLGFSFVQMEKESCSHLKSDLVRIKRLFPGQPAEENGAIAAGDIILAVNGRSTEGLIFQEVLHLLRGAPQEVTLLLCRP
Assay: holdup assay
Design: key: below the threshold = too weak to quantify, mostly under pKd 3.1 to 4
Conditions: plain residues with an end cap or a label only (N-terminal biotin on a linker: ttds)

pKd | Binder
below the threshold | NYWPGKETQL [SLCO1C1, Q9NYB5]
3.57 | CNTVTVETVV [MAS1, P04201]

Biological target: T13, MPP7, Q5T2T1
Assay: holdup assay
Design: key: below the threshold = too weak to quantify, mostly under pKd 3.1 to 4
Conditions: plain residues with an end cap or a label only (N-terminal biotin on a linker: ttds)

pKd | Binder
below the threshold | NYWPGKETQL [SLCO1C1, Q9NYB5]
below the threshold | CNTVTVETVV [MAS1, P04201]
